Substrate in the data set: Nc1ncnc2c1ncn2[C@@H]1O[C@H](COP(=O)(O)OP(=O)(O)OP(=O)(O)O)[C@@H](O)[C@H]1O
The data set can be described thus: purified protein. To be noted: pH 7.0; 25.0 °C.

One may read the Km as the substrate concentration at which the rate is half of its maximum. As a reminder, the kcat is the number of substrate molecules converted per active site and unit of time at saturation.

B1: SOBIR1-KD (Arabidopsis thaliana) (protein)
chain: SIFSPLIKKAEDLAFLENEEALASLEIIGRGGCGEVFKAELPGSNGKIIAVKKVIQPPKDADELTDEDSKFLNKKMRQIRSEINTVGHIRHRNLLPLLAHVSRPECHYLVYEYMEKGSLQDILTDVQAGNQELMWPARHKIALGIAAGLEYLHMDHNPRIIHRDLKPANVLLDDDMEARISDFGLAKAMPDAVTHITTSHVAGTVGYIAPEFYQTHKFTDKCDIYSFGVILGILVIGKLPSDEFFQHTDEMSLIKWMRNIITSENPSLAIDPKLMDQGFDEQMLLVLKIACYCTLDDPKQRPNSKDVRTMLSQIKH
As for B1, the Michaelis constant (Km) was 19.92 ± 0.69 µM and the catalytic constant (kcat) came out at 0.660 ± 0.006 s⁻¹.
